# Experimental data: a protein production outcome set (Wang et al. 2014)
# Assay: label from the status in PepcDB records
# 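Further: failed if final PepcDB status was selected cloned or expressed and not failed if soluble or beyond.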
row,Sequence,protein production
1,MCYHLIIDSFIDRISRMHTQRGLEVTTGSIEAVDSINYFHEQVLSSGQNAIQILDSAKKHTDNLLIQTYAAAFYLYAQEDVANEQASDYLQSAFRLLTSANEREKLIFEAVTNWSKRDYANAISLLVTLLERYPRDTLALKFMEWLFYCTGQAFNAEYFLKVCDKCAPENQDESHFLAIHSFALELCGQYSKAKEMAEEAITMNLLTPWAHHTLAHVHLLTSDITGGINRLRDLQKTWEDILPLLKGHNTWHLALFYLANRNEEEVKKLYPHISGALPDTVLEQLDTISLLWRMDMAGLPQDRLLNQVVDHLSTHPLEYYTGFTNAHFIYCLVKSGYKNEADESLKRMKFYACSPSSDALWGDVVLPLCQGIYAFADADYKTALMLMEPVIGECAQLGGSDAQIELFFQTYLLVLIHNKQKDKALQFFTEHLKYYNNTPLSDWWFQSANKA,failed
2,MSWFTTQRHSGLCRDFGRRWRRVATISSAIALICAQPLFAVPAAKPNEDFFSIAKSIELLGDVYKNVAQNYVDPVNVSEFMYSGIDGMLGQLDPYTAFLDEEQSGELDEITSGQYAGIGVTLGIFSGDLFIISVIDGQPAAKAGLKVGDQIIAIDGVKVSKKSIDEVRSTIKGSPGTNIRLSIKRDGQGPLTVISLTRGEVRISSVPFFGLFGSSGYVQMNSFSEHSREELSAAIRKIRQEAAKNRVVLNGIVLDLRGNPGGLLTSAVEVAGLFVEKNSRIVSTRGRAADSEQVYVTKTEPQEPTLPLVVMIDGDSASASEIVSGAIQELDRGVILGENSFGKGLVQSIINLPYDHILKMTTAKYYTPSGRLIQKPIARDESRRKVVLSNGDADSTKVFYTRNRRKVYGGGGIRPDVVAKADSLSEYQHKIENSGLLFRYASRFHRKHPEFRLQQLSSEPLYDDFNRFLEKEHFSFRSGAQKTLDSLKTLVQKEAGADKALAGQLDALDKALAASTRRNISRDSLHITAALQREIMRHYDERAALKRAIEDDPVAAKAFALLGDQKRYRSLLKP,failed
3,MSKIASEVVATTLNDWYIAIKKQKVDESIKYYSEIKKLFDEMEEDQEVLAYYSLLEERHKMLLHSSRGEPLQKHTYFTEDNQNFITKTNDKLEYNFYLFEAMYEAYNKNYDRAINLYGLAEKKLAEIPDEIEAAEFYSKVSYLYTLVKQSIVAQHYIKNAISIYKRHPDYKCKLATSTMIAAANYADMKRFEEAEQYYLEAIDIAKETKDEFLKAQLFHNLSIVYSDWNKPDKCIESLEKAIGNESWLHSIYYINSLFMMIKELFKIDEKMKAINFYNKAQERLILMENKVYEAKISILYNLYCGELKNNFNNCISNIEFLKQQNELESVDELSYIAAKRFESIGAFEEATSFFNAKIWAEQKMNQVEGIL,failed
4,MVKHIVLFKLRDDVPVEEKLVVMNSFKEAIEALPAKISVIRKIEVGLNMNPGETWNIALYSEFDNLDDVKFYATHPEHVAAGKILAETKESRACVDYEF,not failed
5,MQHPRQGPPSRHTRRSLGRSLALTMTAVLGAAGLALSPAASADSGPTTADPTEAHGLKGEYYTQSAPGAFDFAELKATGFDPGLDFDSLESRLSAATGRADDVSVRWTGEVVPEKSGPTTFSITGDNGFRLWVDGKLTIDHWVDDWDREQTSQPVDLTAGRAYDIKVEYFEHFGGSNLHLRWTPPGGSKSAVPQSAFRLPDGFDYNGALSATVLGDGRTVRLDFPQALASAPATVLDHLTVTSGGKWPLSSVKTDPSDARALLVGLGEPVVGNKAGTAKGGVNVTYDGKGALADTSGTPVKAFWSSGPNKSTYELRTKWADQVGPKNALPEYPRPQLTRKAWQNLNGTWQFAGAKAGEEPPTGRTLAERILVPYPVESQLSGIERHEDRMWYRRTFTVPADWKVGHGKRLRLNFGAVDWQSEVYVNGTKVAEHKGGYDKFSADVTDALKPGRTQELIVGVYDPTDAQGGENPPLGKQRLDPSGIWYTPSSGIWQTVWMEPVAADHVDTLKLTPDVETSTLTVEPKGVRDGLAVTATAYDGKKKVATVRGRTGTPLTLKLAEPRLWSPDDPFLYDLKVDVGADRVGSYFGMRSIAVEKVDGTPRTVLNGKPVFMMATLDQGFWPDGLHTAPTDDALAHDLKMHKQMGFNSVRKHIKVEPDRWFYWADRLGLLVWQDMPAMTAGVNPNAASRAEYEREMKQLIDEHISSPSVVMWVTFNEGWGQYDEARIADQAKAWDPTRLVNSMSGLNLGVDGGTGDVMDEHGYPSPALPPHPDGRRALVSGEYGGLGLGVPGHAWSVQMSYVDVDPAAYTDTYLARLDEVRRLACRGGNGAVYTQISDVEGELNGLMTYDRKIVKPDVQRLRTAHEALIEAVAQSTLPCATS,failed
6,MYKTQKNHIRCDKQTYRLLRQLCHFSKNLYNYALYHIRQHYFKTQEYLRYESVYHLVKESEDYRLLPSQVAQQTLISVIEAFKSFLGLLRAEKEGKVEERVSMPKYLPKDGMYQIVFPKDQFKTEGKKVRLSLGRGFAKEFGVKYLYFDLPATVLGKEIREVRIIPRFNGRWFEIEYVYEDKQQLGIFDLSRYLGVDLGLDNFAAVVDTIGTAFLIEGRFLKSVNRWYNKERARLQSIYSRQGIKCGRKLALVSRKRQHIIDNFLNQAVSLIIKHCLNNQISAVVVGEMKDIKQGIELGVVNNQNFVGIPYDKFKRKLKSKCMYYGIRYVEVDESYTSQRCSRCGHVSKSSRRYRGLYVCKKCGYVVNADINGAINIVAKVAGESVVKQITSSGCVNHPVRIRVA,failed
7,MLKKLFAPPQKRERLSAEEIKHKYPRYRVQVLISIFVGYMGYYFVRNTTSILSGILNMSATEIGIITCASYIAYGLSKFISGLISDESNSKIFLPVGLFLTGLVNVLIGVIPSVITSIWLFTIMYLINGWLQGMGYPPGARTLVYWYDNKERIKYATIWNLSHNFGGAIAPILTGVGLALAGNDSLNQARAAYWFPGVVACLLAVLVYFLQEDTPESIGLPPIEEYHKEQYTNVVDSSDILEEPEVLGMGEIIKKYILPNTKLMWASLYSIFVYILRYGIVSWTPKFLATSVQDGGKGITATAGMGGFSLFEIGGIIGMLTAGYLSAKVFKNSKPLTNVAFLVVAILLLAAYWFIPAGPQYMALDFIILLGLGASIYGPVMMVGLYAMELVPKAAAGAASGLTGTFSYVGGATIATLAIGIIIDHFGWGVAFIIFGISGFAAIVCTLLSRDKSLEYW,failed
8,MIISFVIQVGLFPDSLERKVIRHIENGDHLTCFLFLNYLHVLIQGFSFGGYRVLYKERELSRICPAIRFQRKSFTEVRMILSHHPSFSLVNDPQEIAQIAEWGEEQIAQYKERVTGEGKQRDIDRGKPMAQASLDEAAFLLNLASLEGTWDESLERVAQCYKEAGLNDIAKFVLYRD,failed
9,MNIDLSAIFAQYEALVAETDALFERVRALHPDCVTCGLGCSDCCHAMFDLSLVEAMYLNGKFAASFDFGPERSAVLERASDADRHAYRIKRRMYRESEDGRPAEDILAEAARERVRCPLLGEGDACVLYAHRPITCRLYGIPTAIGGKGHTCGKTAFRAGEKYPTVAVDRIQDRLAALSKEIAVAVGSRFSELHQVYVPVSMALLTRYDDAYLGIGKPKRDD,failed
10,MTTIDIIILIIIGAGVVAGFMKGFIRQLASILGLVVGLLAAKALYATLAEKLCPAVTDSMTVAQVLAFIVIWIAVPLIFTLVASLLTKAMEAISLGWLNRWLGSGLGALKFLLLTSLVICVIEFIDSDNKLISATKKSESLLYYPMETFAGIFFPAAKNITQQYILDNKDATRRTQ,failed
11,MVITGKFAMYVTAFVVTVSLIEAFVLWRKRRDGVKPFSWNEVWLSLADLAGRKLSVLLPLSLAAPVFSFAWDHRLFTITLNSALAVFLLFVGQEFCYYWYHRAAHRIRFFWATHAVHHSPNQLTLTSAYRLGWTGKLTGSAVFFAPLVLLGVRPEVVLATLSLNLLYQFWLHNDWMPKLGWFEYVFNTPSAHRVHHASNIDYLDANYGGVLIIFDRLFGTYVEERADEPCRYGLVHPTTTQNPIVNQFEHWVSLGRDMASASKLWHAAAYLIMPPGWAPNGKGTTTEILRRQQEELRQAGWQRPGVV,failed
12,MDITEKLRLITRNAEEVVTEEELRQLIETKEKPRAYVGYEPSGEIHLGHMMTVQKLMDLQEAGFEIIVLLADIHAYLNEKGTFEEIAEVADYNKKVFIALGLDESRAKFVLGSEYQLSRDYVLDVLKMARITTLNRARRSMDEVSRRKEDPMVSQMIYPLMQALDIAHLGVDLAVGGIDQRKIHMLARENLPRLGYSSPVCLHTPILVGLDGQKMSSSKGNYISVRDPPEEVERKIRKAYCPAGVVEENPILDIAKYHILPRFGKIVVERDAKFGGDVEYASFEELAEDFKSGQLHPLDLKIAVAKYLNMLLEDARKRLGVSV,not failed
13,APAEIFNVVKYPAKLGDMYAYLTPPPANKKNKLPAVIWLNGGYGGIGGDDYFWTPQPVENDQTGATFRDPNMVLMIPSFRGENTNPGRYEMFYGELEDLDSAREYLASLPYVDPKRIYVVGHSTGGTRALLASEYSDKFRAIFSLGGIPDLKLRTEGRMMVELPFDKNNEEEFNVRSVYRYIKSIKTPTFYFEGHDYFWDEFNELRVVAMEHDIPLKIYNIKNGDHFNIIVPVSQLIKEKILQDTDTNKESNIRFTNEEIKWINKMVK,failed
14,MQISDIEVFAAIASSRSLSEAARRLGLSPMAISRRLAALENDLGVRLFHRTTRSVSLTPEGEVFLPHAKTILEASEAARTTLKADAGSASGVLRVTAPSVFGQTVIMPLLPALMLENPALSIDLTLSDSIVDIAGLGIDVAIRIATIRDSALVARSLAPNPRVVCVSPDYLARHGKPTLLEELRHHPCIALHAMPWWPFTRNGEPITIRAQGPFSANSVEAVRTACKQGMGLAMLTYWDVRQEINEGSLQQVDFEDAMPEQLSVTAVLPTRQRVPHRVRLFIDRLEAALKSKAGAAGVTL,failed
15,MDEIESLIGLRPTPLTWPVVIAGDFLGVWDPPPSLPGAANHEISAPTARISCMLIERRDAAARLRRALHRAPVVLLTGPRQAGKTTLSRLVGKSAPECTFDAENPVDATRLADPMLALSGLSGLITIDEAQRIPDLFPVLRVLVDRPVMPARFLILGSASPDLVGLASESLAGRVELVELSGLTVRDVGSSAADRLWLRGGLPPSFTARSNEDSAAWRDGYITTFLERDLAQLGVRIPAATMRRAWTMLAHYHGQLFSGAELARSLDVAQTTARRYLDALTDALVVRQLTPWFANIGKRQRRSPKIYIRDTGLLHRLLGIDDRLALERNPKLGASWEGFVLEQLAALLAPNPLYYWRTQQDAELDLYVELSGRPYGFEIKRTSTPSISRSMRSALVDLQLARLAIVYPGEHRFPLSDTVVAVPADQILTTGSVDELLALLK,failed
16,MSLKIYGVYRSRASRPLWLLAELDLPFEHVPVIQANRVAHPHGPEAPLNTASAAYLAVNPLGQIPCLEEEGLILTESLAITLHIARTQGGQLGPRSEPEDALMVSWSLFAATAVEPPALEIQLIQRSGGGTSPEGQAAIAIAAERLRRPLARLERHFAAEDYLVGGRFTVADLNLAETLRYGQAHPALLEPFPAVAAWLDRCQSRPAFRLMMERRAAEGHHHHHH,not failed
17,MPLSVGQGYFTSSISSEKFNAIKESARLPELSLWEKIKAYFFTTHHAEALECIFNLYHHQELNLTPVQVRGAYIKLRALASQGCKEQFIIESQEHADKLIIKDDNGENILSIEVECHPEAFGLAKEINKSHPKPKNISLGDITRLVFFGDSLSDSLGRMFEKTHHILPSYGQYFGGRFTNGFTWTEFLSSPHFLGKEMLNFAEGGSTSASYSCFNCIGDFVSNTDRQVASYTPSHQDLAIFLLGANDYMTLHKDNVIMVVEQQIDDIEKIISGGVNNVLVMGIPDLSLTPYGKHSDEKRKLKDESIAHNALLKTNVEELKEKYPQHKICYYETADAFKVIMEAASNIGYDTENPYTHHGYVHVPGAKDPQLDICPQYVFNDLVHPTQEVHHCFAIMLESFIAHHYSTE,failed
18,MNKRNTQQRRHSIISILNEQGEVSVDELSLRFETSEVTIRKDLAELEKTGLLLRRYGGAVAIPDEVTQQFSAKIAPNKLSIAKAAAQLIKDHNRIIIDSGTTTSGLIAELNQKRGLVVMTNALHLANAIHELENEPTLLMTGGTWDPHSESFQGQVAEQVLRSYNFDQLFIGADGIDLARGTTTFNELTGLSKVMAEVSREVIVMVDSDKIGKRIPNLELPWSKISVLVTDARIEESALKQITEQGVKVILAPYSP,failed
